Reference: patent US9175027B2, “Polymer-carbohydrate-lipid conjugates” (priority 2011, dated 2015)
Ends that are not written are not given here.

Tests used:
[1] = Stability of peptide solution by HPLC assay; format: physicochemical; details: 24 hours
Procedure: Stability experiment was carried out by HPLC assay and a custom synthesized thermolabile peptide with the following sequence was used as the model compound: […] The peptide was added to selected media and sonicated for 10 minutes. The sample solutions were filtered through passed through 0.22-μm pore-size filter to remove dust particles before the HPLC assay. A Simadzu 10avp chromatography system with a Kinetex C18 (2.6 μm, 100×4.6 mm i.d.) column (Phenomenex, Torrance, Calif.) were used. The solutions were kept at 25° C. in the Autosampler during the assay and the mobile phase consisted of 0.1% of trifluoroacetic acid and acetonitrile mixture (v/v, 80/20) with a flow rate of 1.0 mL/min. The peptide peak was monitored at 210 nm and quantitated using external standard sets of the peptide.
The plots were the % recovery vs. time.

[2] = Physical state of Propofol formulation with PEG-carbohydrate-lipid (solution vs suspension/microemulsion); format: physicochemical
Procedure: A propofol solution suitable for intravenous delivery is prepared as follows. 5% (w/v) of OAPDL-PEG in Saline was added to a vessel equipped with a mixer propeller and 2% (w/v) of Propofol was added with constant mixing at ambient room temperature. Mixing was continued until the drug was visually dispersed. Equal volume of Saline was added to the vessel with adequate mixing. Mixing continued for another 30 minutes or until a homogenous solution was achieved. A sample formulation is described in Table 14.
In Example 16, less concentrated or less purified PEG-sugar-lipid will create a suspension instead of an aqueous solution. For instance, the final concentration of the PEG-carbohydrate-lipid is less than 1.5% (w/v), it will form a suspension. Similarly when the oligomer purity is 80% or less, regardless the concentration of the PEG-carbohydrate-lipid, an emulsified solution will be observed instead of a transparent solution.
Propofol as the active agent was formulated with various polymer-lipid-carbohydrate conjugates described in the present invention. At a lower of the polymer-lipid-carbohydrate conjugate concentration, i.e., OAPDL-11 (<1.5%), the formulation is a microemulsion and at a higher OAPDL-11 concentration (≧2.2%), it is a true solution.
A solution is defined as a homogenous mixture of substances with variable composition. […]

[3] = Body weight change as evidence of cisplatin renal toxicity; format: in vivo, mice (B6D2F1); details: mice, compared with free sugars
Procedure: Groups of four each of mixed gender mice (B6D2F1), […] and weights of 22 to 30 grams) were studied in duplicate. Each mouse was administrated cisplatin intravenously at a dose of 10 mg/kg (Table 15) and Intraperitoneally at a dose of 15 mg/kg (Table 16). The changes in body weights observed can be used as a direct evident in the renal toxicity effects.

Substance | peptide degradation ([1]; in a 50 mM of phosphate buffer) | peptide still remaining ([1]; in a 2% of PEG-carbohydrate-lipid) | state of Propofol formulation ([2]; OAPDL-11 concentration <1.5%) | state of Propofol formulation ([2]; OAPDL-11 concentration ≧2.2%) | intravenous hydration effect for reducing renal toxicity of cisplatin [3]
FPKLSHGCNKHSRKHPYMTF [peptide, custom synthesized thermolabile peptide used as the model compound] | degraded significantly | more than 97% | – | – | –
oleoyl-N-(3-aminopropyl)propane-1,3-diamine-Undecaethylene glycol methyl ether Lactobionate [OAPDL-11] | – | – | microemulsion | true solution | better than free sugars
